Data set [1] has as its system NC[C@H]1O[C@H](O[C@H]2[C@H](O)[C@@H](O[C@H]3O[C@H](CO)[C@@H](O)[C@H](N)[C@H]3O)[C@H](N)C[C@@H]2N)[C@H](O)[C@@H](O)[C@@H]1O. As to the kind of experiment: purified protein.
Data set [2] deals with the molecule itself. As to the kind of experiment: SDS-PAGE of unboiled sample; 10 ug unboiled protein on 8% SDS-PAGE, loading dye with 1% SDS, 0.125 M Tris pH 6.8, 40% glycerol; Coomassie stain.
Data set [3] deals with the molecule itself. As to the kind of experiment: SEC; untreated protein, 100 ug, Superose 6 Increase 10/300 GL, 10 mM Tris-Cl pH 8.0, 150 mM NaCl, 1 mM EDTA, 0.5 mM beta-ME, 25°C, 0.5 ml/min; calibrated with molecular weight markers.
[4] abbreviates: fixed acetyl-CoA (500 μM in the standard assay), 2 mM DTNB, 0.5 μM enzyme, 20 mM phosphate pH 8.0, 25°C.

Experimental findings from paper PMC6433294, “Differential thermal stability, conformational stability and unfolding behavior of Eis proteins from Mycobacterium smegmatis and Mycobacterium tuberculosis” (PLoS ONE, 2019) are described below.

Take “MsEis (Mycolicibacterium smegmatis MC2 155)”: in data set [1] (setting [4]), the Michaelis constant (Km) stood at 21 ± 0.1 µM, the maximal velocity (Vmax) was 4.8 µM/min, the kcat was 0.027 ± 0.005 s⁻¹ and the specificity constant (kcat/Km) turned out to be 1270 ± 22 M⁻¹ s⁻¹.

Take “RvEis (Mycobacterium tuberculosis H37Rv)”: in data set [1] (pH 8.0, 25.0 °C), the Km came out at 11 ± 1.6 µM, the maximal velocity (Vmax) was found to be 4 µM/min and the kcat/Km came to 2140 M⁻¹ s⁻¹.

B1: M. tuberculosis Eis (Rv2416c, Enhanced Intracellular Survival protein) (enzyme)
chain: MTVTLCSPTEDDWPGMFLLAAASFTDFIGPESATAWRTLVPTDGAVVVRDGAGPGSEVVGMALYMDLRLTVPGEVVLPTAGLSFVAVAPTHRRRGLLRAMCAELHRRIADSGYPVAALHASEGGIYGRFGYGPATTLHELTVDRRFARFHADAPGGGLGGSSVRLVRPTEHRGEFEAIYERWRQQVPGGLLRPQVLWDELLAECKAAPGGDRESFALLHPDGYALYRVDRTDLKLARVSELRAVTADAHCALWRALIGLDSMERISIITHPQDPLPHLLTDTRLARTTWRQDGLWLRIMNVPAALEARGYAHEVGEFSTVLEVSDGGRFALKIGDGRARCTPTDAAAEIEMDRDVLGSLYLGAHRASTLAAANRLRTKDSQLLRRLDAAFASDVPVQTAFEF
notes: also called RvEis; not shown: His tag, N-terminal, kept
Take B1: the “stoichiometry N” value in data set [2] came out at 3; in data set [3], 6.

B2: M. smegmatis Eis (MSMEG_3513) protein (enzyme, UniProt A0QY29 1-402, looked up)
chain: MITPRTLHTITDDDWTRIALLARFAFGDIEPEQTQAAWRSMVPEDATVVVPDETDDAFVGQSLYLDMQLTVPGGEVLPVAGISFVAVAPTHRRRGVLRAMYTELHDRIARAGYPLAVLTASEGGIYGRFGYGVATIEQHVSVDRRLAQFHPAAPDPGGVRMLVPADHRDGLADIYDRWRRRTPGGLVRPDALWDDLLADRPESRRGGGELFAFGHQDGYALYRVDRGPDGRRSAHVVELTAVTADAHAALWRALLGLDLIDRVSIGTHPHDPLPYLLTDPRQAQVTASADDLWIRIMNVPAALEARRYQADLDVVLDVADGFRSDGGRFALQISGGRARCTTTDAPADIEIDLDVLGGLYLGAHRVDGFAAANRLRSKDSELLQQFGAAFAGDMPAELGYGF
notes: also called MsEis; Enhanced Intracellular Survival protein from M. smegmatis
For the molecule B2, in data set [3], the “stoichiometry N” value stood at 6.
